Data published in patent publication US20250339569A1 (3B PHARMACEUTICALS, published 2025).
Starred links: 1 amine or outer side, 2 acyl side, 3 side chain; linkers in the order of their positions; H or OH if unused. Positions of bridges follow the written chain, without caps; N, C: chain ends. Non-standard residues stand in square brackets, D forms with d. Groups on a side chain read outwards from the residue. Primed or numbered codes have the meaning given here. *: point of attachment. DOTA = O=C(O)CN1CCN(CC(=O)O)CCN(CC(=O)*)CCN(CC(=O)O)CC1; Ttds(3) = NCCCOCCOCCOCCCNC(=O)CCC(=O)*; mXylylene = c1cc(C[*:1])cc(C[*:2])c1; AEEA = NCCOCCOCC(=O)O; Ttds″ = Ttds spacer

Molecular target: human carbonic anhydrase 9 (CAIX) (human, UniProt Q16790 38-459)
Assay: FACS competition on HT-29 cells against tracer 3BP-2776; pIC50 category A = pIC50 >8.0
Protocol: CAIX-expressing human HT-29 colorectal cancer cells (DSMZ, RRID: CVCL_0320) were cultured in McCoys's 5A modified medium (Biochrom, #F1015) including 10% fetal calf serum (FCS), 2 mM L-glutamine, 100 U/ml penicillin and 100 μg/mL streptomycin. Cells were detached with Accutase (Biolegend, #423201) and washed in FACS buffer (PBS including 1% FCS). Cells were diluted in FACS buffer to a final concentration of 500.000 cells per ml. 200 μL of the cell suspension were transferred to a u-shaped non-binding 96-well plate (Greiner) and cells were washed in ice-cold FACS buffer.
When biotinylated compounds were used an additional incubation step with 1 μg/mL APC-Streptavidin (Miltenyi; #130-106-791) in 50 μL FACS buffer for 30 minutes on ice was performed.
Cells were washed twice with ice-cold FACS buffer and analyzed in an Attune NxT flow cytometer (Thermo Fisher). Median fluorescence intensities (MFI) of the APC/Cy5-channel were calculated by Attune NxT software.

Row | Binder | pIC50 [pic50]
1 | Ac-K(DOTA)VYCE[dP]DWLTWAC-NH2 (linker 4-13 via mXylylene; SMILES CC(=O)N[C@@H](CCCCNC(=O)CN1CCN(CC(=O)O)CCN(CC(=O)O)CCN(CC(=O)O)CC1)C(=O)N[C@H](C(=O)N[C@@H](Cc1ccc(O)cc1)C(=O)N[C@H]1CSCc2cccc(c2)CSC[C@@H](C(N)=O)NC(=O)[C@H](C)NC(=O)[C@H](Cc2c[nH]c3ccccc23)NC(=O)[C@H]([C@@H](C)O)NC(=O)[C@H](CC(C)C)NC(=O)[C@H](Cc2c[nH]c3ccccc23)NC(=O)[C@H](CC(=O)O)NC(=O)[C@H]2CCCN2C(=O)[C@H](CCC(=O)O)NC1=O)C(C)C, also called Ac-Lys(DOTA)-Val-Tyr-[Cys(3MeBn)-Glu-pro-Asp-Trp-Leu-Thr-Trp-Ala-Cys]-NH2) [3BP-3427] | > 8
2 | Ac-K(DOTA)VYCE[dP]DWLTWSC-NH2 (linker 4-13 via 3MeBn, also called Ac-Lys(DOTA)-Val-Tyr-[Cys(3MeBn)-Glu-pro-Asp-Trp-Leu-Thr-Trp-Ser-Cys]-NH2) [3BP-3840] | > 8
3 | Ac-K([AEEA-DOTA])VYCE[dP]DWLTWAC-NH2 (linker 4-13 via mXylylene, also called Ac-Lys(DOTA-O2Oc)-Val-Tyr-[Cys(3MeBn)-Glu-pro-Asp-Trp-Leu-Thr-Trp-Ala-Cys]-NH2) [3BP-3428] | > 8
4 | Ac-VYCEGDWLTWQC-NH2 (linker 3-12 via mXylylene; SMILES CC(=O)N[C@H](C(=O)N[C@@H](Cc1ccc(O)cc1)C(=O)N[C@H]1CSCc2cccc(c2)CSC[C@@H](C(N)=O)NC(=O)[C@H](CCC(N)=O)NC(=O)[C@H](Cc2c[nH]c3ccccc23)NC(=O)[C@H]([C@@H](C)O)NC(=O)[C@H](CC(C)C)NC(=O)[C@H](Cc2c[nH]c3ccccc23)NC(=O)[C@H](CC(=O)O)NC(=O)CNC(=O)[C@H](CCC(=O)O)NC1=O)C(C)C) [3BP-2837] | > 8
5 | Ac-VYCEGDWLTWAC-NH2 (linker 3-12 via mXylylene; SMILES CC(=O)N[C@H](C(=O)N[C@@H](Cc1ccc(O)cc1)C(=O)N[C@H]1CSCc2cccc(c2)CSC[C@@H](C(N)=O)NC(=O)[C@H](C)NC(=O)[C@H](Cc2c[nH]c3ccccc23)NC(=O)[C@H]([C@@H](C)O)NC(=O)[C@H](CC(C)C)NC(=O)[C@H](Cc2c[nH]c3ccccc23)NC(=O)[C@H](CC(=O)O)NC(=O)CNC(=O)[C@H](CCC(=O)O)NC1=O)C(C)C) [3BP-3058] | > 8
6 | {DOTA-Ttds(3)}-VYCE[dA]DWLTWQC-NH2 (linker 3-12 via mXylylene, also called DOTA-Ttds-Val-Tyr-[Cys(3MeBn)-Glu-ala-Asp-Trp-Leu-Thr-Trp-Gln-Cys]-NH2) [3BP-3270] | > 8
7 | Ac-VYCE[dA]DWLTWQC-NH2 (linker 3-12 via mXylylene; SMILES CC(=O)N[C@H](C(=O)N[C@@H](Cc1ccc(O)cc1)C(=O)N[C@H]1CSCc2cccc(c2)CSC[C@@H](C(N)=O)NC(=O)[C@H](CCC(N)=O)NC(=O)[C@H](Cc2c[nH]c3ccccc23)NC(=O)[C@H]([C@@H](C)O)NC(=O)[C@H](CC(C)C)NC(=O)[C@H](Cc2c[nH]c3ccccc23)NC(=O)[C@H](CC(=O)O)NC(=O)[C@@H](C)NC(=O)[C@H](CCC(=O)O)NC1=O)C(C)C, also called Ac-Val-Tyr-[Cys(3MeBn)-Glu-ala-Asp-Trp-Leu-Thr-Trp-Gln-Cys]-NH2) [3BP-3046] | > 8
8 | Ac-VYCAGDWLTWQC-NH2 (linker 3-12 via mXylylene; SMILES CC(=O)N[C@H](C(=O)N[C@@H](Cc1ccc(O)cc1)C(=O)N[C@H]1CSCc2cccc(c2)CSC[C@@H](C(N)=O)NC(=O)[C@H](CCC(N)=O)NC(=O)[C@H](Cc2c[nH]c3ccccc23)NC(=O)[C@H]([C@@H](C)O)NC(=O)[C@H](CC(C)C)NC(=O)[C@H](Cc2c[nH]c3ccccc23)NC(=O)[C@H](CC(=O)O)NC(=O)CNC(=O)[C@H](C)NC1=O)C(C)C) [3BP-3052] | > 8
9 | {DOTA-Ttds″}-VYCEGDWLTWAC-NH2 (linker 3-12 via mXylylene; not fully specified) [3BP-3272] | > 8
10 | {DOTA-Ttds″}-VYCE[dA]DWLTWAC-NH2 (linker 3-12 via mXylylene; not fully specified, also called DOTA-Ttds-Val-Tyr-[Cys(3MeBn)-Glu-ala-Asp-Trp-Leu-Thr-Trp-Ala-Cys]-NH2) [3BP-3279] | > 8
